This note sets out measurements from the DeepSol protein solubility set.

The data set in a line: soluble on expression in E. coli; label from the status in PepcDB or PDB records.
For the sequence “MRGSHHHHHHGMASMTGGQQMGRDLYDDDDKDRWIRTGGYQPTLWDFSTIQSFDSEYKEEKHLMRAAGMIDQVKMMLQEEVDSIRRLELIDDLRRLGISCHFEREIVEILNSKYYTNNEIDERDLYSTALRFRLLRQYDFSVSQEVFDCFKNAKGTDFKPSLVDDTRGLLQLYEASFLSAQGEETLRLARDFATKFLQKRVLVDKDINLLSSIERALELPTHWRVQMPNARSFIDAYKRRPDMNPTVLELAKLDFNMVQAQFQQELKEASRWWNSTGLVHELPFVRDRIVECYYWTTGVVERRQHGYERIMLTKINALVTTIDDVFDIYGTLEELQLFTTAIQRWDIESMKQLPPYMQICYLALFNFVNEMAYDTLRDKGFDSTPYLRKVWVGLIESYLIEAKWYYKGHKPSLEEYMKNSWISIGGIPILSHLFFRLTDSIEEEAAESMHKYHDIVRASCTILRLADDMGTSLDEVERGDVPKSVQCYMNEKNASEEEAREHVRSLIDQTWKMMNKEMMTSSFSKYFVEVSANLARMAQWIYQHESDGFGMQHSLVNKMLRDLLFHRYE”, the “soluble on expression in E. coli” value is given as “soluble”.

Turning to “MRGSHHHHHHGSEYPERPVNMVVPFAAGGPTDNVARSLAESMRPTLGETVVVENKGGAGGTIGTTQVARAQPDGYSILLMHAGFSTAPSLYKNPGYEPYTSFEPIGLVVDVPMTIIARGDFPPNNIKELAEYVKKNADKISLANAGIGAASHLCGTMLVEALGVNLLTIPYKGTAPAMNDLLGKQVDLMCDQTTNTTQQITSGKVKAYAVTSLKRVPTLPDLPTMDESGYKGFEVGIWHGMWAPKGTPKPVVDKLVKSLQAGLADPKFQERMKQLGAEVLTNEANPEALQAKVKQQVPQWAELFKKAGVEKQ”, the “soluble on expression in E. coli” value is “soluble”.

For the sequence “MRGSHHHHHHGSMEEYYMKLALDLAKQGEGQTESNPLVGAVVVKDGQIVGMGAHLKYGEAHAEVHAIHMAGAHAEGADIYVTLEPCSHYGKTPPCAELIINSGIKRVFVAMRDPNPLVAGRGISMMKEAGIEVREGILADQAERLNEKFLHFMRTGLPYVTLKAAASLDGKIATSTGDSKWITSEAARQDAQQYRKTHQSILVGVGTVKADNPSLTCRLPNVTKQPVRVILDTVLSIPEDAKVICDQIAPTWIFTTARADEEKKKRLSAFGVNIFTLETERIQIPDVLKILAEEGIMSVYVEGGSAVHGSFVKEGCFQEIIFYFAPKLIGGTHAPSLISGEGFQSMKDVPLLQFTDITQIGRDIKLTAKPTKE”, the “soluble on expression in E. coli” value is “soluble”.

Turning to “MRGSHHHHHHGSMSQPDATPFDYILSGGTVIDGTNAPGRLADVGVRGDRIAAVGDLSASSARRRIDVAGKVVSPGFIDSHTHDDNYLLKHRDMTPKISQGVTTVVTGNCGISLAPLAHANPPAPLDLLDEGGSFRFARFSDYLEALRAAPPAVNAACMVGHSTLRAAVMPDLRREATADEIQAMQALADDALASGAIGISTGAFYPPAAHASTEEIIEVCRPLITHGGVYATHMRDEGEHIVQALEETFRIGRELDVPVVISHHKVMGKLNFGRSKETLALIEAAMASQDVSLDAYPYVAGSTMLKQDRVLLAGRTLITWCKPYPELSGRDLEEIAAERGKSKYDVVPELQPAGAIYFMMDEPDVQRILAFGPTMIGSDGLPHDERPHPRLWGTFPRVLGHYSRDLGLFPLETAVWKMTGLTAAKFGLAERGQVQPGYYADLVVFDPATVADSATFEHPTERAAGIHSVYVNGAAVWEDQSFTGQHAGRVLNRAGA”, the “soluble on expression in E. coli” value is on record as “soluble”.

Take “MRGSHHHHHHLVPRGSVQVISSYDQFKQVTGGDKVVVIDFWATWCGPCKMIGPVFEKISDTPAGDKVGFYKVDVDEQSQIAQEVGIRAMPTFVFFKNGQKIDTVVGADPSKLQAAITQHSA”: the “soluble on expression in E. coli” value was “soluble”.

Turning to “MRGSHHHHHHTDPALRAPIIQSVERALQILDLFNEQATELKITDISKLMGLSKSTLHSLLKTLQLHGYIDQNPENGKYRLGMKLVERGHFVVGSIDIRQKAKGWLTELSRRTGQTTHLGILDGREGVYIEKIEGKLAAIAYSRIGRRLPVHATAIGKVLIAWLGEAELNALLEGYQYTTFTPATLASREALMSALAQTREQGYALDSEENEQGVRCVAVPVWNHESRVIAALSLSTLTSRVDDAELANFREQLQQAGLALSRALGYPAGLCGR”, the “soluble on expression in E. coli” value was “soluble”.

As for “MRGSHHHHHHTDPALRASVKVIVTDMDGTFLNDAKTYNQPRFMAQYQELKKRGIKFVVASGNQYYQLISFFPELKDEISFVAENGALVYEHGKQLFHGELTRHESRIVIGELLKDKQLNFVACGLQSAYVSENAPEAFVALMAKHYHRLKPVKDYQEIDDVLFKFSLNLPDEQIPLVIDKLHVALDGIMKPVTSGFGFIDLIIPGLHKANGISRLLKRWDLSPQNVVAIGDSGNDAEMLKMARYSFAMGNAAENIKQIARYATDDNNHEGALNVIQAVLDNTSPFNSGLCGR”, the “soluble on expression in E. coli” value is “soluble”.

Consider “MRGTDMAKQQMNIKIKKGEQFPVTIQRIGINGEGVGYFQKQVVFVPGALPGEEVIVEATDIHPTYAEAKIKRIRKRSPNRIKPPCPLYDQCGGCQLQHLSYEAQLEAKRDIVIQALRRHARRLDVDKLDIRPTIGMDNPWHYRNKSQFQVGMKEGKVLAGLYGINSHRLIDLSECRVQHPQTTRVTNIVKTILQDLRIPIYNERTRTGVVRTIVVRVGFHTGDIQLVLVTATKDIPRKQLLIDEIRRRLPEVKSIVQNINGEKTSLIFGDETEVLAGDEYIQETLGDLSFELSSRAFFQLNPLQTVKLYDEVKKAAALTGTERIVDAYCGVGTIGLWLARDAKEVRGMDTIPEAIEDAQNNAKKHGFTNTHYVVGKAEYWLPKWVKGGWKPDVIIVDPPRVGCDRALLETILHVRPKTVVYVSCNPSSLARDLDALAAQYRVDYIQPVDMFPHTAHVECVAKVRLEL”, for which the “soluble on expression in E. coli” value was “not soluble”.

In the case of “MRICSDQPCIVLLTEKDVWIRVNGKEPISLKANHMALLNCENNIIDVSSLNNTLVAHISHDIIKDYLRFLNKDLSQIPVWQRSATPILTLPCLTPDVFRVAAQHSMMPAETESEKERTRALLFTVLSRFLDSKKFVSLMMYMLRNCVSDSVYQIIESDIHKDWNLSMVASCLCLSPSLLKKKLKSENTSYSQIITTCRMRYAVNELMMDGKNISQVSQSCGYNSTSYFISVFKDFYGMTPLHYVSQHRERTVA”, the “soluble on expression in E. coli” value is “soluble”.

On to “MRIEVRLFALYREQAGTDRLALELPEGARVREAQKALEERFPRLRLEGGMAAVNQALAGAETPLKEGDEVAFLPPVSGGQDSYGLTQEPLDLEALVAWATAPEYGAVVSFLGTTRSPNRGEEVAFLEYEAYPEMAEKVMAEILAEMRARWPLGRIALWHRLGRVDPGEASIAIVVSARHRKEAFAACQYAIDRVKQILPVWKKEHRKDGSFWVEGFAPEDKRL”, for which the “soluble on expression in E. coli” value was “soluble”.

Take “MRILADENIPVVDAFFADQGSIRRLPGRAIDRAALAEVDVLLVRSVTEVSRAALAGSPVRFVGTCTIGTDHLDLDYFAEAGIAWSSAPGCNARGVVDYVLGCLLAMAEVRGADLAERTYGVVGAGQVGGRLVEVLRGLGWKVLVCDPPRQAREPDGEFVSLERLLAEADVISLHTPLNRDGEHPTRHLLDEPRLAALRPGTWLVNASRGAVVDNQALRRLLEGGADLEVALDVWEGEPQADPELAARCLIATPHIAGYSLEGKLRGTAQIYQAYCAWRGIAERVSLQDVLPETWLAGLQLNPGCDPAWALATLCRAVYDPRSDDAAFRRSLTGDSATRRAAFDALRKHYPPRREITGLRVATGGQAELQRVVRALGAQLV”: the “soluble on expression in E. coli” value is given as “soluble”.

Regarding “MRILHTADWHLGKTLEGRSRLSEQADVLDELNTIVKDEQIDAIVMAGDAFDTVNPPALAEQLFYESLSALSDRGKRPIVVIAGNHDNPDRLSAASPLTHENGIHLIGYPTTEPIHIEVPSAGELLAVGALAYPSEARLNEVLSDTFDEKLLRDHYDVKIRQAFEHMTSRFRTDAVKIAASHIYVAGGNQTDSDGPIEVGGAYTVAAESLPADAAYVALGHLHRPQTIKRARTLARYSGSPLAYSFSEAGYAKSVTIVDAKPGEEATWQEVLLSSGKPLVKWKAANGLSEVYSWLDEGRDQNAWIDLEIRVADQLSLEEIHRLRKAHPGFIHIRPVFEEQNKDRERIEVKHVSIEDRFKKFYEKQTGGAVPDEEMVRLFLELASGVEEEDAK”, the “soluble on expression in E. coli” value is given as “not soluble”.
